“And” between values parts separate entries of the source, which are not always exact repeats. Equal entries are not always repeated. Where two headings read alike, the source gives them in different places. Values belong to the molecule of their own block, whether it stands above or below them. Bridges are numbered along the chain shown (N, C = ends). Where no end group is shown, it is not given here.
Columns and labels:
[1] = Circular dichroism spectroscopy of helical conformational stability; assay type: physicochemical; settings: 50 mM aqueous KF, pH 7.4, 20 μM peptide
[2] = molecular target: T1, fluorescein-labeled N2B peptide (NHR2-binding motif of E-proteins) (Homo sapiens, UniProt Q99081); assay: Fluorescence polarization direct binding assay with fluorescein-labeled N2B peptide (flu-N2B); settings: 100 nM flu-N2B, 25° C., 10 mM Tris 20 mM NaCl pH 7.4, 0.1% pluronic F-68, triplicate, listed as NHR2482-551, read-out: Kd (binding affinity to fluorescein-labeled N2B peptide)
[3] = molecular target: T1, fluorescein-labeled N2B peptide (NHR2-binding motif of E-proteins); settings: Sun et al., Nature 500:93 (2013); read-out: KD with flu-N2B, literature reported; cited from earlier work

Molecule: AB-1: HBS-A helix joined to peptide B by a GGSSGG linker; N-terminal HBS constraint (SEQ ID NO:3) (XELXELEWRLGGSSGGLAERIARLR; not fully specified; HBS constraint; Hydrogen bond surrogate peptide AB-1; (1)..(1) Xaa at position 1 is pentenoic acid; (4)..(4) Xaa at position 4 is N-allylalanine)
Helical character by CD (in words) [1]: weakly helical signature
Minimum at 222/208 (ratio of CD bands) [1]: 0.73
|θ222| (CD ellipticity at 222 nm) [1]: 8475

Molecule: Ac-ELAELEWRL-NH2
Helical character by CD (in words) [1]: nonhelical signatures

Molecule: Ac-LWERIARLR-NH2 [B]
Helical character by CD (in words) [1]: nonhelical signatures

Molecule: ECAELEWRLGGSSGGLAERIARCR (disulfide 2-23; not fully specified (N-terminus, C-terminus)) [AB-3]
Helical character by CD (in words) [1]: did not provide significant helical stabilization
Minimum at 222/208 (ratio of CD bands) [1]: 0.62
|θ222| (CD ellipticity at 222 nm) [1]: 9460

Molecule: cyclo(GGSSGGELAELEWRLGGSNGGLAERIARLR (macrocyclic; Cyclic peptide AB-2; (1)..(1) Position 1 and 30 are linked by a peptide bond to form a cyclic peptide; (30)..(30) Position 1 and 30 are linked by a peptide bond to form a cyclic peptide)
Helical character by CD (in words) [1]: minimal helicity
Minimum at 222/208 (ratio of CD bands) [1]: 0.62
|θ222| (CD ellipticity at 222 nm) [1]: 8950

Kd [2]: 356 µM and 363 µM
B1: NHR2: native GST-tagged NHR2 coiled-coil domain (482-551) of AML1-ETO, expressed in E. coli (protein, UniProt Q06455 482-551, looked up, fragment)
chain: ERAKMERTVAEAKRQAAEDALAVINQQEDSSESCWNCGRKASETCSGCNTARYCGSFCQHKDWEKHHHIC
modifications: NHR2 coiled-coil domain GST tag
notes: native GST-tagged NHR2 coiled-coil domain (482-551) of AML1-ETO, expressed in E. coli
Kd [3]: 380 ± 18 µM
